The values that follow come from publication PMC11827629.

Data set [1] deals with T1, thrombin, N-terminally 2PCA-labeled (Cy5, biotin) (UniProt P00734;P00734 328-363;364-622). Briefly: single-molecule FRET (koff/kon); koff 0.1 +/- 0.1 s-1; kon 0.2 +/- 0.1 e8 M-1 s-1; main text gives error 0.7; smFRET: 1x PBS with 2.5 mM PCA, 0.155 U/ul PCD, 1 mM Trolox, 5 nM Cy3-aptamer, 23 +/- 1 C, pH not stated; QCM: PBS, flow 45 +/- 3 ul/min, thrombin 0.06-16.5 nM.
For data set [2], the target named is T2, human alpha-thrombin (Homo sapiens, UniProt P00734;P00734 328-363;364-622). Briefly: QCM; about twice the sensitivity of RE31; response at 300 pM; release 3.1 +/- 1.05% per 5 min at 16.5 nM; smFRET: 1x PBS with 2.5 mM PCA, 0.155 U/ul PCD, 1 mM Trolox, 5 nM Cy3-aptamer, 23 +/- 1 C, pH not stated; QCM: PBS, flow 45 +/- 3 ul/min, thrombin 0.06-16.5 nM.
For data set [3], the target named is T1, thrombin, N-terminally 2PCA-labeled …. As to the kind of experiment: single-molecule FRET (koff/kon); koff 0.3 +/- 0.1 s-1; kon 1.1 +/- 0.1 e8 M-1 s-1; smFRET: 1x PBS with 2.5 mM PCA, 0.155 U/ul PCD, 1 mM Trolox, 5 nM Cy3-aptamer, 23 +/- 1 C, pH not stated; QCM: PBS, flow 45 +/- 3 ul/min, thrombin 0.06-16.5 nM.
Data set [4] addresses T2, human alpha-thrombin. As to the kind of experiment: QCM; linear 1.65-16.5 nM; no significant change below; release 6.3 +/- 0.6% per 5 min at 16.5 nM; smFRET: 1x PBS with 2.5 mM PCA, 0.155 U/ul PCD, 1 mM Trolox, 5 nM Cy3-aptamer, 23 +/- 1 C, pH not stated; QCM: PBS, flow 45 +/- 3 ul/min, thrombin 0.06-16.5 nM.
In data set [5] the target is T1, thrombin, N-terminally 2PCA-labeled …. Briefly: single-molecule FRET (koff/kon); koff 0.7 +/- 0.1 s-1; kon 0.7 +/- 0.1 e8 M-1 s-1; main text gives error 0.8; smFRET: 1x PBS with 2.5 mM PCA, 0.155 U/ul PCD, 1 mM Trolox, 5 nM Cy3-aptamer, 23 +/- 1 C, pH not stated; QCM: PBS, flow 45 +/- 3 ul/min, thrombin 0.06-16.5 nM.

A word on the Kd: it is the equilibrium constant for the complex coming apart. A higher Kd goes with lower affinity. As to TTTTTTTCGCCTAGGTTGGGTAGGGTGGTGGCG (structured_DNA) [NU172 single molecule exp.], the Kd in data set [1] stood at 3.3 nM.
For TTTTTTTCGCCTAGGTTGGGTAGGGTGGTGGCG (structured_DNA, 5' amino C6) [NU172 QCM exp.], in the data set with human alpha-thrombin [2], the binding result is “binds”.
Turning to TTTTTTTGTGACGTAGGTTGGTGTGGTTGGGGCGTCAC (structured_DNA) [RE31 single molecule exp.], the Kd in data set [3] came to 2.9 nM. This lies in the single-digit nanomolar range.
For the molecule TTTTTTTGTGACGTAGGTTGGTGTGGTTGGGGCGTCAC (structured_DNA, 5' amino C6) [RE31 QCM exp.], the binding result with human alpha-thrombin [4] is “binds”.
On to TTTTTTTGGTTGGTGTGGTTGG (structured_DNA) [HD1 single molecule exp.], for which the Kd in data set [5] was found to be 9.2 nM.
